Ends that are not written are not given here.
B1: Ac-SRGTQTE (peptide)
peptide: Ac-SRGTQTE
notes: phage-selected consensus without position -5; also called Ac-5 version of the in vitro evolved consensus; source: synthetic peptide
B2: Ac-GSRGTQTE (peptide)
peptide: Ac-GSRGTQTE
notes: phage-selected consensus with Gly at position -5; also called Gly-5 version of the in vitro evolved consensus; source: synthetic peptide
B3: Ac-VSRGTQTE, in vitro evolved consensus peptide (peptide)
peptide: Ac-VSRGTQTE
notes: also called phage selected consensus; source: synthetic peptide
B4: Ac-DKSTQTD, naturally evolved consensus peptide (peptide)
peptide: Ac-DKSTQTD
notes: also called natural consensus; Ac-5 version of the natural consensus; source: synthetic peptide
B5: Ac-GDKSTQTD (peptide)
peptide: Ac-GDKSTQTD
notes: natural consensus extended by Gly at position -5; also called Gly-5 version of the natural consensus; source: synthetic peptide
B6: Ac-VDKSTQTD (peptide)
peptide: Ac-VDKSTQTD
notes: natural consensus extended by Val at position -5; also called Val-5 version of the natural consensus; source: synthetic peptide
B7: EML3 (8-94), recombinant fragment (domain or fragment, human, UniProt Q32P44 8-94, looked up)
chain: GDGPAREALQSLSQRLRVQEQEMELVKAALAEALRLLRLQVPPSSLQGSGTPAPPGDSLAAPPGLPPTCTPSLVSRGTQTETEVELK
notes: also called EMAP-3; source: recombinant
B8: dimeric-… (Leu-zipper dimerized … peptide) (peptide)
chain: not shown
notes: first two residues (Gly-7, Ser-6) come from the recombinant construct; leucine zipper of yeast GCN4, residues 250-281; PDB 3P8M holds the construct; not shown: GST, N-terminal, cleaved

Biological target: T1, LC8 dynein light chain DYNLL1 (residues 1-89) (human (from the printed UniProt …, UniProt P63167 1-89))
T1 construct: DYNLL1, residues 1-89, UniProt P63167, cloned into pET-15b; The methods name thrombin removal of the His tag only for DYNLL2; also called DYNNL1; source: E. coli BL21(DE3)Star, purified (Ni IMAC, HiTrapQ anion exchange)
T1 sequence (P63167 whole entry, the tested form may be a part): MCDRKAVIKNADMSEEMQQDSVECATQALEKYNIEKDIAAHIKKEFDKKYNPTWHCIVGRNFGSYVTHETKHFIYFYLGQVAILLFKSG
Test: ITC; 15 µM DYNLL1 in the cell, 30-40 injections of 3-5 µl peptide; PBS with 3 mM 2-mercaptoethanol, pH 7.4; 299 K; A + B to AB model
Details: both partners purified

| Binder | stoichiometry N |
| --- | --- |
| B1 | 1 |
| B2 | 1 |
| B3 | 1 |
| B4 | 1 |
| B5 | 1 |
| B6 | 1 |

Biological target: T1, LC8 dynein light chain DYNLL1 (residues …)
Test: as above
Details: both partners purified
Remark: another data set of the same source

| Binder | Kd | dH |
| --- | --- | --- |
| B1 | 15200 nM | -11.6 kcal/mol |
| B7 | 50 nM | -7.74 kcal/mol |
| B2 | 1640 nM | -16.7 kcal/mol |
| B3 | 80 nM | -18.1 kcal/mol |
| B8 | < 7 nM | -15.5 kcal/mol |
| B4 | 5600 nM | -11.7 kcal/mol |
| B5 | 560 nM | -16.8 kcal/mol |
| B6 | 70 nM | -15.6 kcal/mol |

Biological target: the molecule itself
Test: crystal structure; DYNLL2 (1.2 mM dimer) with 1.3 mM dimerized-VSRGTQTE; hanging drop, 293 K, 20% PEG8000, 0.2 M MgCl2, 0.1 M TRIS pH 7.0
Details: not given

| Binder | binding result |
| --- | --- |
| B8 | binds |

Source: publication PMC3078936, “Directed Evolution Reveals the Binding Motif Preference of the LC8/DYNLL Hub Protein and Predicts Large Numbers of Novel Binders in the Human Proteome” (PLoS ONE, 2011)
